Consider nine molecules from article PMC7515697 (2020).

In test [1] the target is X. albilineans Cas8f–Cas5f heterodimer (Xanthomonas albilineans). Put plainly: ITC; 250 μM AcrIF7 in the syringe titrated into 35 μM Cas8f–Cas5f in the cell; 20 mM Tris–HCl pH 7.5, 150 mM NaCl, 1 mM TCEP, 25°C; one-site binding model. A general note: ITC needs no label: the signal is the heat of the interaction.
In test [2] the target is X. albilineans Cas8f(K248E)–Cas5f heterodimer (Xanthomonas albilineans). The description is as above.
Test [3] deals with X. albilineans Cas8f(K29E)–Cas5f heterodimer (Xanthomonas albilineans). The description is as above.
The target in test [4] is X. albilineans Cas8f–Cas5f heterodimer (Xanthomonas albilineans). Nature of the test: ITC; as the standard ITC but with 500 mM NaCl instead of 150 mM.
The target of test [5] is T1, X. albilineans Cas8f–Cas5f heterodimer (Xanthomonas albilineans).
T1 chain 1: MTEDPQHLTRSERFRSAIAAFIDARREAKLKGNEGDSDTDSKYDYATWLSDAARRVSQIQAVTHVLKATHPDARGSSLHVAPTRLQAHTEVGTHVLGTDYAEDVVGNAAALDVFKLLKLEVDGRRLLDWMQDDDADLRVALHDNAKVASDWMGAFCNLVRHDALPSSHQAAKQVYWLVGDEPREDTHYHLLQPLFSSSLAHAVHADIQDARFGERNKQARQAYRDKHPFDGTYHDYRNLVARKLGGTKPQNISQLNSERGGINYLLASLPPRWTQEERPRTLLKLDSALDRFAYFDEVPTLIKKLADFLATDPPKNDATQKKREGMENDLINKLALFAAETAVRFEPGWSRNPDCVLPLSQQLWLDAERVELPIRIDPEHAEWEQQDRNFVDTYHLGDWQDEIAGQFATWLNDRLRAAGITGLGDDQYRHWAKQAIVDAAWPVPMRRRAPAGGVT
T1 chain 2: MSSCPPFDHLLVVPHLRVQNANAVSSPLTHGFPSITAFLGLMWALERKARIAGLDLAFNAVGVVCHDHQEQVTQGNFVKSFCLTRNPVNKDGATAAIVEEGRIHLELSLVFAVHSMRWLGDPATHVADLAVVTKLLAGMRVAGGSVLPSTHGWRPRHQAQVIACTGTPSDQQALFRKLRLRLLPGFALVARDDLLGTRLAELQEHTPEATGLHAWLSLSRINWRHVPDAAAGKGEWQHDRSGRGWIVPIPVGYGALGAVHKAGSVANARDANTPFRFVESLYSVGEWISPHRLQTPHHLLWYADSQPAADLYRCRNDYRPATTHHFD
Put plainly: ITC; 500 mM NaCl.

Broadly, the Kd is the constant that tells how readily two partners part at equilibrium. A higher Kd goes with weaker binding. One may read the stoichiometry N as a count of units in the complex or per binding partner. In test [1], AcrIF7 D13K (natural protein) showed a Kd of 2450 nM, a dH of -14.2 kcal/mol and a stoichiometry N of 0.72.

In test [1], AcrIF7 E22K (natural protein) had a Kd of 50 nM, a dH of -15.6 kcal/mol and a stoichiometry N of 0.75.

For the molecule AcrIF7 D28K/D29K (natural protein), in test [1], the Kd turned out to be 179 nM, the dH is -12.9 kcal/mol and the stoichiometry N is 0.75.

In test [1], AcrIF7 D57K (natural protein) returned a Kd of 333 nM, a dH of -12.7 kcal/mol and a stoichiometry N of 0.77.

For the molecule AcrIF7 (a.a. 1–67) (natural protein), the Kd in test [2] turned out to be 1870 nM; in test [1] it was 46 nM; in test [3], 327 nM. The dH in test [2] is -16 kcal/mol; in test [1], -17.1 kcal/mol; in test [3], -14.5 kcal/mol. In addition, the stoichiometry N in test [2] stood at 0.78; in test [1], 0.78; in test [3], 0.83. Besides, in test [4], the fold reduction of the strength of the interaction at 500 mM NaCl against 150 mM NaCl amounted to 2.7 fold.

In test [1], AcrIF7 E33K/E34K (natural protein) came in with a Kd of 4850 nM, a dH of -9.5 kcal/mol and a stoichiometry N of 0.9.

As for AcrIF7 E46K/E47K (natural protein), in test [1], the dissociation constant (Kd) was 46 nM, the dH was -17 kcal/mol and the stoichiometry N came out at 0.8.

AcrIF7 E18K (natural protein): in test [1], the Kd worked out at 49 nM, the dH is -19.6 kcal/mol and the stoichiometry N worked out at 0.88.

B1: AcrIF7 (a.a. 1–67) (natural protein)
chain: MTTFTSIVTTNPDFGGFEFYVEAGQQFDDSAYEEAYGVSVPSAVVEEMNAKAAQLKDGEWLNVSHEA
Molecule B1 registered a Kd in test [5] of 124 nM.
